Key:
trypsin [1] = test: TRF, 0.6 ug/mL Fab on trypsin
trypsin [2] = test: TRF, 2.4 ug/mL Fab on trypsin
trypsin [3] = test: TRF, 10 ug/mL Fab on trypsin
trypsin [4] = test: phage TRF on trypsin

Row | Binder | TRF signal (trypsin [1]) | TRF signal (trypsin [2]) | TRF signal (trypsin [3]) | Tryspin binding signal (FU) (trypsin [4])
1 | KB_A01 Fab (Fab, V domains shown) VH: EVQLVESGGGLVRPGGSLRLSCAASGFTFSSYAMSWVRQAPGKGLEWVSAISGSGGSTYYADSVKGRFTISRDNTKNSLYLQMTSLRADDTAFYYCVKDFGPGYGTGWFDYWGPGTLVTVSS VL: YLNWYQQKPGKAPKLLIYAAEVCPRILMRCKQDSDCLAGCVCGPNGFCGGTSGVPSRFSGSRSGTEFTLTISSLQPEDFATYYCQKVDDYPLTFGGGTKVEIKR | 2390 | 16600 | 55600 | 
2 | KB_B01 (scFv on phage) (scFv, V domains shown) VH: EVQLVESGGGLVRPGGSLRLSCAASGFTFSSYAMSWVRQAPGKGLEWVSAISGSGGSTYYADSVKGRFTISRDNTKNSLYLQMTSLRADDTAFYYCVKDFGPGYGTGWFDYWGPGTLVTVSS VL: AVNWYQQLPGKAPKLLIYAAAGCPRILMRCKQDSDCLAGCVCGPNGFCGTRSGVSDRFSGSKSGTSASLAISGLRSEDEADYYCAAWDDSLRAYVFGTGTKLTVLG |  |  |  | 57700 FU
3 | KB_A07 Fab (Fab, V domains shown) VH: EVQLVESGGGLVRPGGSLRLSCAASGFTFSSYAMSWVRQAPGKGLEWVSAISGSGGSTYYADSVKGRFTISRDNTKNSLYLQMTSLRADDTAFYYCVKDFGPGYGTGWFDYWGPGTLVTVSS VL: YLNWYQQKPGKAPKLLIYAAGVCPRILMRCKQDSDCLAGCVCGPNGFCGSRSGVPSRFSGSGSGTDFTLTISSLQPEDFATYYCQQGASPPYTFGQGTKVEIKR | 108000 | 201000 | 226000 | 
4 | KB_B11 (scFv on phage) (scFv, V domains shown) VH: EVQLVESGGGLVRPGGSLRLSCAASGFTFSSYAMSWVRQAPGKGLEWVSAISGSGGSTYYADSVKGRFTISRDNTKNSLYLQMTSLRADDTAFYYCVKDFGPGYGTGWFDYWGPGTLVTVSS VL: TQPPSVSEAPRQRVTITCGSRPCPRILMRCKQDSDCLAGCVCGPNGFCGSHNWYQQLPGSSPTTVIYEDNQRPSGVPDRFSGSIDRSSNSASLTISGLKTEDEADYYCQSYDSSNHRVVFGGGTKLTVLG |  |  |  | 10300 FU
5 | KB_A02 Fab (Fab, V domains shown) VH: EVQLVESGGGLVRPGGSLRLSCAASGFTFSSYAMSWVRQAPGKGLEWVSAISGSGGSTYYADSVKGRFTISRDNTKNSLYLQMTSLRADDTAFYYCVKDFGPGYGTGWFDYWGPGTLVTVSS VL: AVNWYQQLPGKAPKLLIYAAAKCPRILMRCKQDSDCLAGCVCGPNGFCGGASGVSDRFSGSIDSSSNSASLTISGLKPEDEGDYYCQSYDSSNRWVFGGGTKVTVLG | 93800 | 221000 | 255000 | 
6 | KB_B10 (scFv on phage) (scFv, V domains shown) VH: EVQLVESGGGLVRPGGSLRLSCAASGFTFSSYAMSWVRQAPGKGLEWVSAISGSGGSTYYADSVKGRFTISRDNTKNSLYLQMTSLRADDTAFYYCVKDFGPGYGTGWFDYWGPGTLVTVSS VL: QSVLTQLPSVSEAPRQRVTITCGRAMCPRILMRCKQDSDCLAGCVCGPNGFCGTGNWYQQHPGKAPKLIIFDVSKRPSGVPDRFSASKSGNTASLTISGLQAEDEADYYCNSYTSSNTWVFGGGTQLTVLG |  |  |  | 9270 FU
7 | KB_C10 (scFv on phage) (scFv, V domains shown) VH: EVQLVESGGGLVRPGGSLRLSCAASGFTFSSYAMSWVRQAPGKGLEWVSAISGSGGSTYYADSVKGRFTISRDNTKNSLYLQMTSLRADDTAFYYCVKDFGPGYGTGWFDYWGPGTLVTVSS VL: AVNWYQQLPGKAPKLLIYAAGPCPRILMRCKQDSDCLAGCVCGPNGFCGADSGVSDRFSGSKSGTSASLAITGLQAEDEGDYYCAAWDDSLNGLVFGGGTKVTVLG |  |  |  | 119000 FU
8 | KB_A09 (scFv on phage) (scFv, V domains shown) VH: EVQLVESGGGLVRPGGSLRLSCAASGFTFSSYAMSWVRQAPGKGLEWVSAISGSGGSTYYADSVKGRFTISRDNTKNSLYLQMTSLRADDTAFYYCVKDFGPGYGTGWFDYWGPGTLVTVSS VL: AVNWYQQLPGKAPKLLIYAAERCPRILMRCKQDSDCLAGCVCGPNGFCGTPSGVPDRFSGSIDTFSNSASLTISGLKTEDEADYYCQSYDSSHHWVFGGGTKLTVLG |  |  |  | 57700 FU
9 | KB_C08 (scFv on phage) (scFv, V domains shown) VH: EVQLVESGGGLVRPGGSLRLSCAASGFTFSSYAMSWVRQAPGKGLEWVSAISGSGGSTYYADSVKGRFTISRDNTKNSLYLQMTSLRADDTAFYYCVKDFGPGYGTGWFDYWGPGTLVTVSS VL: AVNWYQQLPGKAPKLLIYAAAVCPRILMRCKQDSDCLAGCVCGPNGFCGTRSGIPERFSGSKSGTSAFLAISGLRSEDEADYYCAAWDDSLSGVVFGGGTKLTVLG |  |  |  | 76800 FU
10 | KB_B12 (scFv on phage) (scFv, V domains shown) VH: EVQLVESGGGLVRPGGSLRLSCAASGFTFSSYAMSWVRQAPGKGLEWVSAISGSGGSTYYADSVKGRFTISRDNTKNSLYLQMTSLRADDTAFYYCVKDFGPGYGTGWFDYWGPGTLVTVSS VL: TQPPSVSEAPRQRVTITCGERPCPRILMRCKQDSDCLAGCVCGPNGFCGANNWYQQLPGSSPTTVIYEDNQRPSGVPDRFSGSIDSSSNSASLTISGLKTEDEADYYCQSYDSSNQVFGGGTKVTVLG |  |  |  | 17400 FU
11 | KB_A09 Fab (Fab, V domains shown) VH: EVQLVESGGGLVRPGGSLRLSCAASGFTFSSYAMSWVRQAPGKGLEWVSAISGSGGSTYYADSVKGRFTISRDNTKNSLYLQMTSLRADDTAFYYCVKDFGPGYGTGWFDYWGPGTLVTVSS VL: AVNWYQQLPGKAPKLLIYAAERCPRILMRCKQDSDCLAGCVCGPNGFCGTPSGVPDRFSGSIDTFSNSASLTISGLKTEDEADYYCQSYDSSHHWVFGGGTKLTVLG | 21000 | 84100 | 161000 | 
12 | KB_A11 Fab (Fab, V domains shown) VH: EVQLVESGGGLVRPGGSLRLSCAASGFTFSSYAMSWVRQAPGKGLEWVSAISGSGGSTYYADSVKGRFTISRDNTKNSLYLQMTSLRADDTAFYYCVKDFGPGYGTGWFDYWGPGTLVTVSS VL: YLNWYQQKPGKAPKLLIYAAEICPRILMRCKQDSDCLAGCVCGPNGFCGPSSGIPARFSGSGYGTDFTLTINNIESEDAAYYFCLQHDNFPYTFGQGTKVEIKR | 48900 | 141000 | 212000 | 
13 | KB_A06 Fab (Fab, V domains shown) VH: EVQLVESGGGLVRPGGSLRLSCAASGFTFSSYAMSWVRQAPGKGLEWVSAISGSGGSTYYADSVKGRFTISRDNTKNSLYLQMTSLRADDTAFYYCVKDFGPGYGTGWFDYWGPGTLVTVSS VL: AVNWYQQLPGKAPKLLIYAAVRCPRILMRCKQDSDCLAGCVCGPNGFCGTPSGIPERFSGSIDRSTNSASLTISGLKTEDEADYYCQSYDSSNLNWVFGGGTKLTVLG | 108000 | 212000 | 242000 | 
14 | KB_C07 (scFv on phage) (scFv, V domains shown) VH: EVQLVESGGGLVRPGGSLRLSCAASGFTFSSYAMSWVRQAPGKGLEWVSAISGSGGSTYYADSVKGRFTISRDNTKNSLYLQMTSLRADDTAFYYCVKDFGPGYGTGWFDYWGPGTLVTVSS VL: AVNWYQQLPGKAPKLLIYAAVGCPRILMRCKQDSDCLAGCVCGPNGFCGSASGVSDRFSGSKSGTSASLAISGLRSEDEADYYCASWDDSLRGYVFGTGTKVTVLG |  |  |  | 43300 FU
15 | KB_C09 (scFv on phage) (scFv, V domains shown) VH: EVQLVESGGGLVRPGGSLRLSCAASGFTFSSYAMSWVRQAPGKGLEWVSAISGSGGSTYYADSVKGRFTISRDNTKNSLYLQMTSLRADDTAFYYCVKDFGPGYGTGWFDYWGPGTLVTVSS VL: AVNWYQQLPGKAPKLLIYAAGRCPRILMRCKQDSDCLAGCVCGPNGFCGGGSGVPDRFSGSIDSSSNSASLTISGLRAEDEADYYCQSYDSSNHWVFGGGTKLTVLG |  |  |  | 89400 FU
16 | KB_A11 (scFv on phage) (scFv, V domains shown) VH: EVQLVESGGGLVRPGGSLRLSCAASGFTFSSYAMSWVRQAPGKGLEWVSAISGSGGSTYYADSVKGRFTISRDNTKNSLYLQMTSLRADDTAFYYCVKDFGPGYGTGWFDYWGPGTLVTVSS VL: YLNWYQQKPGKAPKLLIYAAEICPRILMRCKQDSDCLAGCVCGPNGFCGPSSGIPARFSGSGYGTDFTLTINNIESEDAAYYFCLQHDNFPYTFGQGTKVEIKR |  |  |  | 16400 FU
17 | KB_B02 (scFv on phage) (scFv, V domains shown) VH: EVQLVESGGGLVRPGGSLRLSCAASGFTFSSYAMSWVRQAPGKGLEWVSAISGSGGSTYYADSVKGRFTISRDNTKNSLYLQMTSLRADDTAFYYCVKDFGPGYGTGWFDYWGPGTLVTVSS VL: AVNWYQQLPGKAPKLLIYAAVGCPRILMRCKQDSDCLAGCVCGPNGFCGTGSGIPERFSGSKSGNTASLTISGLQAEDEGDYYCAAWDDSLSGPVFGGGTKLTVLG |  |  |  | 116000 FU
18 | KB_A10 Fab (Fab, V domains shown) VH: EVQLVESGGGLVRPGGSLRLSCAASGFTFSSYAMSWVRQAPGKGLEWVSAISGSGGSTYYADSVKGRFTISRDNTKNSLYLQMTSLRADDTAFYYCVKDFGPGYGTGWFDYWGPGTLVTVSS VL: AVNWYQQLPGKAPKLLIYAAGGCPRILMRCKQDSDCLAGCVCGPNGFCGSNSGVPDRFSGSKSGNTASLTISGLQSEDEADYYCAAWDDSLSGVVFGGGTQLTVLG | 14600 | 71900 | 68700 | 
19 | KB_A10 (scFv on phage) (scFv, V domains shown) VH: EVQLVESGGGLVRPGGSLRLSCAASGFTFSSYAMSWVRQAPGKGLEWVSAISGSGGSTYYADSVKGRFTISRDNTKNSLYLQMTSLRADDTAFYYCVKDFGPGYGTGWFDYWGPGTLVTVSS VL: AVNWYQQLPGKAPKLLIYAAGGCPRILMRCKQDSDCLAGCVCGPNGFCGSNSGVPDRFSGSKSGNTASLTISGLQSEDEADYYCAAWDDSLSGVVFGGGTQLTVLG |  |  |  | 38800 FU
20 | KB_A05 Fab (Fab, V domains shown) VH: EVQLVESGGGLVRPGGSLRLSCAASGFTFSSYAMSWVRQAPGKGLEWVSAISGSGGSTYYADSVKGRFTISRDNTKNSLYLQMTSLRADDTAFYYCVDFGPGYGTGWFDYWGPGTLVTVSS VL: AVNWYQQLPGKAPKLLIYAADKCPRILMRCKQDSDCLAGCVCGPNGFCGGGSGIPERFSGSKSGTSASLAISGLRSEDEADYYCATWDDNLNGVVFGGGTKLTVLG | 46700 | 65400 | 218000 | 
